Positions of bridges follow the written chain, without caps; N, C: chain ends. No end group written: not given here.
Experiments:
Test in all cases: enzyme inhibition assay (panel of proteases); cyc-LHSPW tested against a panel of cancer-associated proteases (Fig. 5A); conditions not given
trypsin = molecular target: trypsin
aminopeptidase A = molecular target: T1, aminopeptidase A (UniProt Q07075 1-957)
T1 chain: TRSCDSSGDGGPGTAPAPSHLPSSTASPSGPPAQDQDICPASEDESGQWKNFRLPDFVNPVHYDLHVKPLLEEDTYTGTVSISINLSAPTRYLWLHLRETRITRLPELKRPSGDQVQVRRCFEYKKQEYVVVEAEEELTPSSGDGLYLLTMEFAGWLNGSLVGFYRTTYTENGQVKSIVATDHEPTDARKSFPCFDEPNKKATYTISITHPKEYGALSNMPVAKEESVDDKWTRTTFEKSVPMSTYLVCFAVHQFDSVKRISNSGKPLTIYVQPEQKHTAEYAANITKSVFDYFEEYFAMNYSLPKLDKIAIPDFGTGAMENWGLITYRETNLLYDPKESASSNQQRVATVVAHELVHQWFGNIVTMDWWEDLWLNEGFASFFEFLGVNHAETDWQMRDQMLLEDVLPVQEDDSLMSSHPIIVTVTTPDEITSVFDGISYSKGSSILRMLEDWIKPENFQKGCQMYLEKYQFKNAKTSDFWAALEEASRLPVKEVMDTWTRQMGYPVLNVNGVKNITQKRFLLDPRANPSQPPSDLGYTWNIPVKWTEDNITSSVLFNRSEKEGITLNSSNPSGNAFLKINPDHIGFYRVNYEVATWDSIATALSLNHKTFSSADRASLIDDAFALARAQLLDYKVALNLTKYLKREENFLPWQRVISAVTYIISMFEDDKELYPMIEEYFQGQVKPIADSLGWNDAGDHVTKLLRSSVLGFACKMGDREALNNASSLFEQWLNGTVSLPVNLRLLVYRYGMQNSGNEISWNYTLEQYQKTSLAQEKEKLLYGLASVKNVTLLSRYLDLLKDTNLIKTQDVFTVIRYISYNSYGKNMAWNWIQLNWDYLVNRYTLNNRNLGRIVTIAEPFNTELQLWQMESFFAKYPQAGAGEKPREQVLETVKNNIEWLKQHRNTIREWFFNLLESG

PSA = PSA (UniProt P07288 18-261)
KLK7 = KLK7 (UniProt P49862 23-253)
FAP = FAP (UniProt Q12884 1-760)

Measured: Ki

Chain of FAP (Q12884 26-760): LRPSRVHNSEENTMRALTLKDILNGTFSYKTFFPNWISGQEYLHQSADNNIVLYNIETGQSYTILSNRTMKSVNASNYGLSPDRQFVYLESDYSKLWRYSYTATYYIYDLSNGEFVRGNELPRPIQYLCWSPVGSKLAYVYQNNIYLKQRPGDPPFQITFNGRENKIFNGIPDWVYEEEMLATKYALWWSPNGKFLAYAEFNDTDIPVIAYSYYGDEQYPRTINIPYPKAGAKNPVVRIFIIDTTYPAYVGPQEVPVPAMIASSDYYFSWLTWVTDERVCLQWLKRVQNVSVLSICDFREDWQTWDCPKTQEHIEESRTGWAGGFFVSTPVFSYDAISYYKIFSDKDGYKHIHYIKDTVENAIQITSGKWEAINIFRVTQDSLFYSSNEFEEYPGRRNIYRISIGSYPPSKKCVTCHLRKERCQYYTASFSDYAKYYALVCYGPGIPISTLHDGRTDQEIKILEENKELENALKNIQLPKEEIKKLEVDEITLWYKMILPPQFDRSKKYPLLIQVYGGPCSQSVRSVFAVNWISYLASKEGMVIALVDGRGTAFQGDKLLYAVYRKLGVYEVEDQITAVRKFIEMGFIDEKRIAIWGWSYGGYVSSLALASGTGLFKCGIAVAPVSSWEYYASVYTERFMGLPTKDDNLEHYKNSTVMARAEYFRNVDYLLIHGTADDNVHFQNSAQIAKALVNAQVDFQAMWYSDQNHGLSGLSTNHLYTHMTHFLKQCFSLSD
Chain of PSA (P07288 25-261): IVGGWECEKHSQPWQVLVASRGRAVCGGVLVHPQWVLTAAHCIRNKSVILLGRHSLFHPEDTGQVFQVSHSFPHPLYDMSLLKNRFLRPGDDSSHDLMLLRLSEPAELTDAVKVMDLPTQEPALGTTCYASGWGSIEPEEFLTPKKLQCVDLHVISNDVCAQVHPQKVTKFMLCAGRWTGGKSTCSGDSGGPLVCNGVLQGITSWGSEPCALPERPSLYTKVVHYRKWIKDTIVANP
Chain of KLK7 (P49862 30-253): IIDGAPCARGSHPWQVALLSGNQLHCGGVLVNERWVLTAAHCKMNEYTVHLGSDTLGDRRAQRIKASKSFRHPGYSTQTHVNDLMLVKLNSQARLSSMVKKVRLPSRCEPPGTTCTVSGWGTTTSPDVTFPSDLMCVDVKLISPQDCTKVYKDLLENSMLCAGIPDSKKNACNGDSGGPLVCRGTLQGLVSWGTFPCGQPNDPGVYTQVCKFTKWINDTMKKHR

B1: cyc-LHSPW (peptide)
peptide: CLHSPWC
modifications: disulfide 1-7
> 100 µM: trypsin | aminopeptidase A | PSA | KLK7 | FAP

Reference: publication PMC5431086 (Scientific Reports, 2017)
